This passage reports Kd, koff and kon results from US20200190197A1 (REMD BIOTHERAPEUTICS, published 2020).

Changes are numbered by the printed parent chain.

Experiment [1] deals with T1, His-tagged PD-L1 protein (human, UniProt Q9NZQ7 19-238).
T1 construct: also called His-tagged antigen PD-L1 protein; human PD-L1; not shown: His tag
Description: SPR, Biacore T200, multi-cycle; Fab captured on chip, His-tagged PD-L1 as analyte. How it is done: A combinatorial humanization phage display library was constructed using the heavy chain and light chain variable domain sequences of mAb PDL1#10. Briefly, frameworks of human antibodies with high sequence identities to PDL1#10 were selected and assembled using overlapping PCR. This humanized Fab phage display library was panned against PD-L1 Fc-fusion protein. Individual output phage clones were amplified in 96-deep-well plates and the amplified phage were assayed by ELISA against PD-L1 Fc-fusion protein. […] DNAs encoding the Fab fragments of the output phage were amplified and inserted in pFASEBA vector (Genscript) for the screening of the best humanized antibody clones. Individual Fab clones were expressed in 96-deep-well plates and the crude protein secreted by E. coli to the medium was assayed by ELISA against BSA and the antigen PD-L1 protein for the assessment of expression and binding activity, respectively. Thousands of humanized clones were screened and a number of clones with slower off-rate were identified, amongst which 14 clones with the highest binding affinities were subjected to multi-cycle affinity measurement. The binding affinity of the 14 purified Fabs to His-tagged PD-L1 protein were determined using a Surface Plasmon Resonance (SPR) biosensor, Biacore T200 (GE Healthcare) for multi-cycle affinity measurements. Fabs were immobilized on the sensor chip through capture method. His-tagged antigen PD-L1 protein was used as the analyte. The data of dissociation (kd) and association (ka) rate constants were processed using Biacore T200 evaluation software. The equilibrium dissociation constants (KD) were calculated from the ratio of kd over ka.

Experiment [2] concerns the target T1, His-tagged PD-L1 protein. Kind of experiment: SPR, Biacore T200, full-length IgG, 1:1 interaction model. The source says:
Binding data for each antibody was processed and fitted to 1:1 interaction model using Biacore T200 evaluation software. All experimental data could be well fitted to the model.
Background: In SPR one partner is held on a chip, and binding of the other changes the refractive index at the surface.

T1 sequence (Q9NZQ7 19-238 limits assumed): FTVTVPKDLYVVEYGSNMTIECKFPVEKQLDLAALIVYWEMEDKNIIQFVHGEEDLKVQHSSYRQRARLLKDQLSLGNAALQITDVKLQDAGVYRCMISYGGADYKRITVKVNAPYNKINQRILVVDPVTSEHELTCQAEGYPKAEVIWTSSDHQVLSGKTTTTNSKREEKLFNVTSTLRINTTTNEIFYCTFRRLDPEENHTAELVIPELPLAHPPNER

B1: AS02013 (humanized Fab) (Fab, V domains shown)
VH: EVQLVQSGAEVKKPGESLKISCKGSGYSFTSYSINWVRQAPGKGLEWMGYFYVGNGYTDYNEKFKGRVTMTRNTSISTAYMELSSLRSEDTAVYYCARGGLPYYFDYWGQGTLVTVSS
VL: DIQLTQSPSSLSASVGDRVTITCKTSQDVNTAVAWYQQKPGQAPRLLIYWASTRHTGVPSRFSGSGSGTDFTLTISSLQPEDFATYYCQQHYNTPLTFGGGTKLEIK
notes: Purified humanized Fab
The Kd is the concentration at which binding is half-saturated. A word on the koff: it is the rate constant with which the complex falls apart. In general, kon refers to the rate constant with which the complex forms. Low readings indicate slow association, high ones fast association. In experiment [1], B1 showed a dissociation constant (Kd) of 0.38 nM, an off-rate (koff) of 0.0002 s⁻¹ and an on-rate (kon) of 500000 M⁻¹ s⁻¹.

B2: AS01825 (humanized Fab) (Fab, V domains shown)
VH: QMQLVQSGAEVKKTGSSVKVSCKASGYTFTSYSINWVRQMPGKGLEWMGYFYVGNGYTDYNEKFKGRVTITADESTSTAYMELSSLRSEDTAVYYCARGGLPYYFDYWGQGTLVTVSS
VL: B1 VL with S10F, Q42K, R45K, F83V
notes: Purified humanized Fab
Regarding B2, in experiment [1], binding was put at a Kd of 1.1 nM, the off-rate (koff) was 0.00039 s⁻¹ and the kon came to 360000 M⁻¹ s⁻¹.

B3: AS01790 (humanized full-length IgG) (antibody, V domains shown)
VH: B1 VH with A40M
VL: DIQMTQSPSTLSASVGDRVTITCKTSQDVNTAVAWYQQKPGKAPKLLIYWASTRHTGVPSRFSGSGSGTEFTLTISSLQPEDFATYYCQQHYNTPLTFGGGTKLEIKR
notes: Full-length IgG expressed in HEK293 cells, protein A purified
In experiment [2], B3 returned a Kd of 0.769 nM, a dissociation rate constant (koff) of 0.000253 s⁻¹ and a kon of 329000 M⁻¹ s⁻¹.

B4: AS01789 (humanized Fab) (Fab, V domains shown)
VH: B1 VH with K43Q, G44A, M70I, N73D, I76A, G100D, Y103F, Q110D, T112I, S117A
VL: DIVMTQSPDSLAVSLGERATINCKTSQDVNTAVAWYQQKPGQPPKLLIYWASTRHTGVPDRFSGSGSGTDFTLKISRVEAEDVGVYYCQQHYNTPLTFGGGTKLEIK
notes: Purified humanized Fab
In experiment [1], B4 showed an equilibrium dissociation constant (Kd) of 1.1 nM, a koff of 0.00036 s⁻¹ and an association rate constant (kon) of 330000 M⁻¹ s⁻¹.

B5: AS01807 (humanized Fab) (Fab, V domains shown)
VH: B2 VH with M2V, A9S, V11L, T14P, S16A, M40A, A72R, E74T, T76A
VL: B1 VL with L4M, L11V, G41D, A43S, R45K, Y49K
notes: Purified humanized Fab
In experiment [1], B5 showed a dissociation constant Kd of 1.4 nM, an off-rate (koff) of 0.00035 s⁻¹ and a kon of 260000 M⁻¹ s⁻¹.

B6: AS02002 (humanized Fab) (Fab, V domains shown)
VH: B2 VH with M40A, P41R, K43Q, G44R, M48I
VL: B1 VL with L4M, G41D, A43S, R45K, Y49K, V58I, S60A, D70E, P80S, T85V
notes: Purified humanized Fab
As to B6, in experiment [1], the Kd is 1.5 nM, the koff turned out to be 0.00042 s⁻¹ and the kon was 310000 M⁻¹ s⁻¹.

B7: AS01814 (humanized Fab) (Fab, V domains shown)
VH: B2 VH with M2V, A9S, V11L, T14P, S16A, M40A, M48V, G49A
VL: B1 VL with L4M, S10T, Q42K, R45K, I48L, V58I, S60A, D70E, P80S, T85V
notes: Purified humanized Fab
Regarding B7, in experiment [1], the Kd stood at 0.16 nM, the off-rate constant (koff) turned out to be 0.00011 s⁻¹ and the kon is 680000 M⁻¹ s⁻¹.

B8: AS01995 (humanized Fab) (Fab, V domains shown)
VH: B1 VH
VL: B1 VL with L4M, L11V, Q42K, R45K, I48L, F83V
notes: Purified humanized Fab
In experiment [1], B8 registered a dissociation constant Kd of 0.37 nM, an off-rate constant (koff) of 0.00017 s⁻¹ and a kon of 450000 M⁻¹ s⁻¹.

B9: AS01979 (humanized Fab) (Fab, V domains shown)
VH: B1 VH
VL: B1 VL with L4M, L11V, A43P, R45K, S60D, P80A, F83V, T85V
notes: Purified humanized Fab
In experiment [1], B9 showed a Kd of 0.4 nM, an off-rate constant (koff) of 0.00019 s⁻¹ and an association rate constant (kon) of 470000 M⁻¹ s⁻¹.

B10: AS02013 (humanized full-length IgG) (antibody, V domains shown)
VH: B1 VH
VL: B3 VL with M4L, T10S, K42Q, K45R, E70D
notes: as for B3
For B10, in experiment [2], the Kd turned out to be 0.751 nM, the dissociation rate constant (koff) came out at 0.000276 s⁻¹ and the on-rate (kon) came out at 367000 M⁻¹ s⁻¹.

B11: AS01790 (humanized Fab) (Fab, V domains shown)
VH: B1 VH with A40M
VL: B1 VL with L4M, S10T, Q42K, R45K, D70E
notes: Purified humanized Fab derived from PDL1#10 (pFASEBA vector, E. coli)
In experiment [1], B11 had a Kd of 0.35 nM, a dissociation rate constant (koff) of 0.00017 s⁻¹ and an on-rate (kon) of 500000 M⁻¹ s⁻¹.

B12: AS01817 (humanized Fab) (Fab, V domains shown)
VH: B1 VH with M70I, N73D, I76A
VL: B1 VL with S10F, A43P, R45K
notes: Purified humanized Fab
On to B12, for which, in experiment [1], the dissociation constant Kd is 0.93 nM, the koff was 0.00032 s⁻¹ and the on-rate (kon) turned out to be 340000 M⁻¹ s⁻¹.

B13: AS01978 (humanized Fab) (Fab, V domains shown)
VH: B1 VH with M70I, R72T, N73D, T74E, I76T
VL: B1 VL with G41D, A43S, R45K, Y49K
notes: Purified humanized Fab
As for B13, in experiment [1], binding was characterised by a dissociation constant (Kd) of 1.6 nM, the koff is 0.00045 s⁻¹ and the kon was determined as 290000 M⁻¹ s⁻¹.

B14: AS01824 (humanized Fab) (Fab, V domains shown)
VH: B2 VH with M2V, A9S, V11L, T14P, S16A, M40A, M48V, G49A
VL: EIVMTQSPATLSVSPGERATLSCKTSQDVNTAVAWYLQKPGQSPQLLIYWASTRHTGVPSRFSGSGSGTDYTLTISSLQPEDFATYYCQQHYNTPLTFGGGTKLEIK
notes: Purified humanized Fab
In experiment [1], B14 gave a Kd of 0.87 nM, a dissociation rate constant (koff) of 0.00054 s⁻¹ and an on-rate (kon) of 620000 M⁻¹ s⁻¹.

B15: AS01814 (humanized full-length IgG) (antibody, V domains shown)
VH: B2 VH with M2V, A9S, V11L, T14P, S16A, M40A, M48V, G49A
VL: B3 VL with I48L, V58I, S60A, P80S, T85V
notes: as for B3
In experiment [2], B15 displayed a Kd of 0.461 nM, an off-rate constant (koff) of 0.000173 s⁻¹ and an association rate constant (kon) of 376000 M⁻¹ s⁻¹.

B16: murine-human chimeric Fab (from mAb PDL1#10) (Fab, V domains shown)
VH: EVQLQQSGAELVRPGSSVKMSCKTSGYTFTSYSINWVKQRPGQGLEWIAYFYVGNGYTDYNEKFKGKATLTSDTSSSTAYMQLSSLTSEDSAIYFCARGGLPYYFDYWGQGTTLTVSS
VL: DIVMTQSHKFMSTSVGDRVSITCKTSQDVNTAVAWYQQKPGHSPKLLFYWASTRHTGVPDRFTGGGSGTDYTLTISSVQAEDLALYYCQQHYNTPLTFGAGTRLELKR
In the case of B16, in experiment [1], the Kd amounted to 0.29 nM, the koff was determined as 0.00021 s⁻¹ and the kon is 730000 M⁻¹ s⁻¹.

B17: murine-human chimeric antibody derived from murine PDL1#10 (Chimeric IgG) (antibody, V domains shown)
VH: B16 VH
VL: B16 VL
notes: also called mouse-human chimeric antibody
In experiment [2], B17 came in with an equilibrium dissociation constant (Kd) of 1 nM, a koff of 0.000338 s⁻¹ and a kon of 336000 M⁻¹ s⁻¹.
